Results published in paper PMC5331220, “Oxidation of F-actin controls the terminal steps of cytokinesis” (Nature Communications, 2017).
Positions count from the first letter of the chain named. In names and notes the source's numbering stands. Several values for one entry are separate records, joined by “and”; a condition that tells them apart may be missing. Equal values may be shown once.

T1: His-tagged MICAL1^FAD-CH-LIM (MICAL1^1–843) (human, UniProt Q8TDZ2 1-843)
T1 construct: MICAL1, human, amino acids 1-843 (monooxygenase/FAD, CH and LIM domains); also called 6xHis-MICAL1^FAD-CH-LIM; source: E. coli BL21-AI, purified (Ni-NTA magnetic agarose beads)
T1 sequence (looked up): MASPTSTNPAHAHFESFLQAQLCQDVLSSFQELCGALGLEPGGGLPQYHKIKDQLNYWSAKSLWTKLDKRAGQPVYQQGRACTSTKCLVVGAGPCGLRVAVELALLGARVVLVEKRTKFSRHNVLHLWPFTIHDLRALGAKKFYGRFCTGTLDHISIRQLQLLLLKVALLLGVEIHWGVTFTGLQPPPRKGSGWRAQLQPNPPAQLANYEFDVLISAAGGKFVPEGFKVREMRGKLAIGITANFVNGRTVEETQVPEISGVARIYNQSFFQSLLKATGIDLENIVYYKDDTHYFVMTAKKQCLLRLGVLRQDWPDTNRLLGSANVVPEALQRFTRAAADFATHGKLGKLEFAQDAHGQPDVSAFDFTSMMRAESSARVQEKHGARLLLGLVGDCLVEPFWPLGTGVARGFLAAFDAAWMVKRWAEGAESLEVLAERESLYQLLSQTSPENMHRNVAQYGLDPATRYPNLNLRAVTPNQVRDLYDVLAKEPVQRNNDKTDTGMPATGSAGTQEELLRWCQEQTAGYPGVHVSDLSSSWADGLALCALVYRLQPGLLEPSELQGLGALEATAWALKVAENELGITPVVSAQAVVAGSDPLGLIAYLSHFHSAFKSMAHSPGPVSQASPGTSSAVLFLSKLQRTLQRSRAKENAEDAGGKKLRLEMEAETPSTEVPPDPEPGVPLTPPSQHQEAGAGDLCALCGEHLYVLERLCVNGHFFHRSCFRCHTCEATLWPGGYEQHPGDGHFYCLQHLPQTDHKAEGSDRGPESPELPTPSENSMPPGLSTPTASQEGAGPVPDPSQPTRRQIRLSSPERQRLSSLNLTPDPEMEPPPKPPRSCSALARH

T2: MICAL1^879-1067 wild-type (human, UniProt Q8TDZ2 879-1067)
T2 construct: source: E. coli BL21-CodonPlus-RILP or BL21-Gold, purified (HisTrap, rTEV cleavage, Superdex-75); not shown: His6, N-terminal, cleaved
T2 sequence (looked up): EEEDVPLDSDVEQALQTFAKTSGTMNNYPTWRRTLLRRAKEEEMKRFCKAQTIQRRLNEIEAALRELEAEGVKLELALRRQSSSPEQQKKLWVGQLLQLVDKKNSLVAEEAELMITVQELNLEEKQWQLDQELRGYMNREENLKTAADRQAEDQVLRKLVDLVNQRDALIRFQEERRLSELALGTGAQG

B1: GST-tagged MICAL1^879–1067 (domain or fragment, human, UniProt Q8TDZ2 879-1067, looked up)
chain: T2 sequence (looked up)
notes: source: E. coli BL21-AI, purified (glutathione Sepharose 4B)
B2: MICAL1^918-1067 wild-type (C-terminal domain of human MICAL1) (domain or fragment, UniProt Q8TDZ2 918-1067, looked up)
chain: KEEEMKRFCKAQTIQRRLNEIEAALRELEAEGVKLELALRRQSSSPEQQKKLWVGQLLQLVDKKNSLVAEEAELMITVQELNLEEKQWQLDQELRGYMNREENLKTAADRQAEDQVLRKLVDLVNQRDALIRFQEERRLSELALGTGAQG
notes: also called C-term MICAL1; source: E. coli BL21-CodonPlus-RILP or BL21-Gold, purified (HisTrap, rTEV cleavage, Superdex-75); not shown: His6, N-terminal, cleaved
B3: MICAL1^918-1067 S1 mutant (E946K, V950D, E953K, V971E, L975R, V978E) (domain or fragment, human, UniProt Q8TDZ2 918-1067, looked up)
chain: B2 chain with E29K, V33D, E36K, V54E, L58R, V61E
notes: the supplement and the results print V978E; source: E. coli BL21-CodonPlus-RILP or BL21-Gold, purified (HisTrap, rTEV cleavage, Superdex-75); not shown: His6, N-terminal, cleaved
B4: Rab35^1-199 (domain or fragment)
chain: not shown
notes: Rab35 GTPase, human, residues 1-199; Loaded with GppNHp; also called GppNHp-Rab35 1-199; source: E. coli BL21-CodonPlus-RILP or BL21-Gold, purified (HisTrap, rTEV cleavage, Superdex-75); not shown: His6, N-terminal, cleaved
B5: Rab35^1-175 (domain or fragment)
chain: not shown
notes: Rab35 GTPase, human, residues 1-175 (lacks the last 26 aa); Loaded with GppNHp (assay a1) or with GDP (assay a2); also called GppNHp-Rab35 1-175; GDP-Rab35 1-175; source: E. coli BL21-CodonPlus-RILP or BL21-Gold, purified (HisTrap, rTEV cleavage, Superdex-75); not shown: His6, N-terminal, cleaved

Key:
Details in all cases: both partners purified
[1] = biological target: T1, His-tagged MICAL1^FAD-CH-LIM …; experiment: pull-down; GST-MICAL1^879–1067 on glutathione Sepharose 4B beads, incubated with 6xHis-MICAL1^FAD-CH-LIM alone or with increasing amounts of Rab35-GppNHp in 50 mM Tris pH 8, 150 mM NaCl, 2 mM MgCl2, 1 mM DTT; anti-6xHis and anti-Rab35 blots
Rab35^1-175 = biological target: B5; experiment: ITC; MicroCal ITC-200, 10 °C; C-terminal MICAL1 domain 60 μM in the cell, GppNHp-Rab35 480 μM added in 2 μl aliquots; 50 mM Tris pH 8, 150 mM NaCl, 2 mM MgCl2, 2 mM TCEP, 5% glycerol; one-site model
Sequence of Rab35^1-175 (Q15286 1-175): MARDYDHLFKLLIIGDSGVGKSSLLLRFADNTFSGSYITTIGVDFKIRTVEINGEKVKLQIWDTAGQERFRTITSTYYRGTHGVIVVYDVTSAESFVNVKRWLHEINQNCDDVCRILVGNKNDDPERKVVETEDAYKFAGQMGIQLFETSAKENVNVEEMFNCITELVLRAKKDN

Rab35^1-199 = biological target: B4; experiment: as above
Sequence of Rab35^1-199 (Q15286 1-199): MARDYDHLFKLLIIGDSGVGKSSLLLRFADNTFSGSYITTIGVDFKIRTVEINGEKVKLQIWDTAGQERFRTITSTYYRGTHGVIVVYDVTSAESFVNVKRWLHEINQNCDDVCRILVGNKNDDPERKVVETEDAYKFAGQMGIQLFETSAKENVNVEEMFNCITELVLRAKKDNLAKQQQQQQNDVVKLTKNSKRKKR

[2] = biological target: B2; experiment: as above
[3] = biological target: T2, MICAL1^879-1067 wild-type; experiment: as above
[4] = biological target: B3; experiment: as above

## B1
[1]
  binding result: binds

## B2
Rab35^1-175
  Kd: 8.3 µM and 4.5 µM
Rab35^1-199
  Kd: 4.5 µM and 5 µM and 4.8 µM

## B3
Rab35^1-175
  Kd: 7.9 µM and 6.4 µM and 7.2 µM

## B4
[2]
  stoichiometry N: 1.07

## B5
[3]
  Kd: 13 µM
  stoichiometry N: 0.8
[4]
  stoichiometry N: 0.95
[2]
  stoichiometry N: 1.09
